Test results reported in patent US20130196383A1, “Method of Producing Dicer” (published 2013).
Each block holds one binder with its values, some of them ahead of it.

Assays:
[1] = target: T1, MBP-ATPase/hel, ATPase/helicase domain of human Dicer (1-604) fused with maltose-binding protein, bacterially … (human, UniProt Q9UPY3 1-604); test: size exclusion and pull-down (brief figure description)
T1 construct: not shown: the His6 tag and the linker/TEV site lette
T1 sequence: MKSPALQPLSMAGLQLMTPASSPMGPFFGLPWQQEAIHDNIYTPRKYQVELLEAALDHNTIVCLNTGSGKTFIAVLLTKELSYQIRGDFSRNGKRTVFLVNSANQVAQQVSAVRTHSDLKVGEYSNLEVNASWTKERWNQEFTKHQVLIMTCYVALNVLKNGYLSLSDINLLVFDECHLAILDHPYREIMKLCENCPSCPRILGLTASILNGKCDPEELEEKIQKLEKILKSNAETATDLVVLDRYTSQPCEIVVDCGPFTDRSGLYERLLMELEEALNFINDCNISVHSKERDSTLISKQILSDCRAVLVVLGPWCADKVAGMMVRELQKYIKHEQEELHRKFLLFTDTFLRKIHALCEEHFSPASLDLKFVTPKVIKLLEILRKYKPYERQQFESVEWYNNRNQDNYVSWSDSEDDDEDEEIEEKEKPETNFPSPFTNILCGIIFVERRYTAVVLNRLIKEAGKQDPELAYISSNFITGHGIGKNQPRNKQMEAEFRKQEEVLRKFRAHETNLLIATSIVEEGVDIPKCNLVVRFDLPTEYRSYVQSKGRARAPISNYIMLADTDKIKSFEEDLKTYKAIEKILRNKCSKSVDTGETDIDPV
Method: Six microgram of both of hTRBP2 and mbp-ATPase/hel-HA proteins were mixed with 15 μl of anti-hemagglutinin (anti-HA) antibody-coupled agarose beads in 1× phosphate-buffered saline (PBS) buffer (Sigma, Saint Louis, Mo.) and incubated in cold room and rocked 60 min. The mixture was pelleted by 30 sec spin at 10,000×g and then washed once with 1×PBS and followed by 5 times with the washing buffer of 20 mM Hepes (pH 7.5), 250 mM NaCl, 1% glycerol and 0.1% Triton X-100. After the last wash, the pellet was boiled for 3 min in 1.2×SDS protein loading buffer. As a control, hTRBP2 alone was also processed in the same way.
ATPase/Helicase domain of hDcr interacts with TRBP. A. Schematic representation of bacterially expressed ATPase/hel domain tagged with MBP. B. The interaction of MBP-ATPase/hel fragment with hTRBP2. A pre-incubated mixture of the MBP-ATPase/hel fragment with 3-fold excess of hTRBP2 was fractionated with a Superdex 200 size-exclusion column (top panel, elution profile). […] The excess hTRBP2 elutes in the second peak. C. MBP-ATPase/hel can pull-down hTRBP2. The MBP-ATPase/hel-domain was purified with a C-terminal hemagglutinin (HA) epitope tag. The two purified proteins (30 pmol of hDcr and 130 pmol of hTRBP2) were incubated on ice with anti-HA antibody agarose beads (Sigma-Aldrich) for 60 min prior to several washes. The bound proteins are eluted via boiling with 1.2×SDS buffer. […]

[2] = target: T2, hDcr-C, C-terminal fragment of human Dicer (1235-1922), bacterially expressed (human, UniProt Q9UPY3 1235-1922); test: size-exclusion chromatography after incubation without RNA
T2 construct: Expressed in E. coli from the pHMGWA-His6-MBP destination vector via pENTR/TEV/D-TOPO
T2 sequence: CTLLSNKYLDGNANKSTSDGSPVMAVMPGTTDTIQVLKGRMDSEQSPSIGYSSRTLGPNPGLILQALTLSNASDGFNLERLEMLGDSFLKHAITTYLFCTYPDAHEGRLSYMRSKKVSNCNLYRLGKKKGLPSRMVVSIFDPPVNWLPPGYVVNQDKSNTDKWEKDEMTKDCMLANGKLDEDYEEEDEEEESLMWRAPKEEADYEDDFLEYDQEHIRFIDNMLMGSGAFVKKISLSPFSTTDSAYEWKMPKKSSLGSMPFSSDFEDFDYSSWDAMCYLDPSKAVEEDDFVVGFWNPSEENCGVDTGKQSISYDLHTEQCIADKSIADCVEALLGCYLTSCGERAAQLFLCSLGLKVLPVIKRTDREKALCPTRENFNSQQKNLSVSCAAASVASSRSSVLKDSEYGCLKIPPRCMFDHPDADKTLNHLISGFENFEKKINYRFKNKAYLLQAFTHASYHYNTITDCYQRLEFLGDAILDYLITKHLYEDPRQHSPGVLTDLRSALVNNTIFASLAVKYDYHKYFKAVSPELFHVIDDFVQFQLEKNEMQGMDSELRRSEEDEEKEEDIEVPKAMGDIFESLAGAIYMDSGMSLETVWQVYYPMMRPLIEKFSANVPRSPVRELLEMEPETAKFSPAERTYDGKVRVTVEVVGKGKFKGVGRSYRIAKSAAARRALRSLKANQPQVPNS
Method: To assess the role of the PAZ domain in determining Dicer cleavage product length, an attempt was made to express the PAZ domain alone in E. coli. Although this was unsuccessful, a construct including both the PAZ domain and the adjacent DUF283 region yielded soluble protein (hereafter the tandem construct named DP, FIG. 2A). […] To test for a direct protein-protein interaction, hDcr-C and DP polypeptides were incubated together in the absence of RNA and then analyzed by size exclusion chromatography.
DP forms a stable complex with hDcr-C. A pre-incubated mixture of the hDcr-C fragment with 3-fold excess of DP was analyzed with a Superdex 200 size-exclusion column (top panel, elution profile).

[3] = target: T3, hDcr-CΔRBD, hDcr-C lacking the C-terminal dsRBD (1235-1844), bacterially expressed (human, UniProt Q9UPY3 1235-1844); test: complex formation; method not detailed
T3 construct: also called hDcr-CARBD
T3 sequence: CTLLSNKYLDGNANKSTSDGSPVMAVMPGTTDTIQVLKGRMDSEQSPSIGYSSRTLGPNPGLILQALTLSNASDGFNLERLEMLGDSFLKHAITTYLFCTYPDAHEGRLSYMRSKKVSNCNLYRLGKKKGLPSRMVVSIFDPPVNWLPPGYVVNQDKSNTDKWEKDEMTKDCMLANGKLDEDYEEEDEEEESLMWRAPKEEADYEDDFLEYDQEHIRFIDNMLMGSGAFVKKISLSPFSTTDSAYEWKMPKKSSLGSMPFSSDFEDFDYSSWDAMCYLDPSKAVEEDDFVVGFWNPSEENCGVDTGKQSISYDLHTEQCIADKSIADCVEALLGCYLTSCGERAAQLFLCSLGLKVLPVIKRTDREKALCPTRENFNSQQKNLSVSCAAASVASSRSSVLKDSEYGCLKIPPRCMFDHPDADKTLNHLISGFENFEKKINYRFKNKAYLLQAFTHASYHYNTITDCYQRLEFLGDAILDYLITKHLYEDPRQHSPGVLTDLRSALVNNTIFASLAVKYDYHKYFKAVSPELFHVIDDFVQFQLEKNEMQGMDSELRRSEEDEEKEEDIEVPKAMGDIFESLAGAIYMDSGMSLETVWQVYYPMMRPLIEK

[4] = target: T4, hDcr-C (RNase IIIa/IIIb-dsRBD) fragment of human Dicer (Homo sapiens, UniProt Q9UPY3 SEQ:1235-1922); test: filter; out of detectable limit; almost no binding; conditions: tags: expressed from pHMGWA-His6-MBP vector, E. coli; label: 5'-32P on one strand; siRNA duplex, 19 bp, Dicer product mimic
T4 chain: T2 sequence
Method: (§1) Filter binding assays of hDcr and different hDcr fragments were performed in the same way as previously described (7). Briefly, serial dilutions of hDcr protein were incubated in a buffer containing 20 mM Tris-HCl (pH 7.5), 25 mM NaCl, 5 mM EDTA, 1 mM dithiothreitol (DTT), 1% glycerol and ˜0.5-1 nM (1500 CPM) of 5′-end ³²P-labeled duplex RNA substrate (one strand was labeled) at room temperature for 60 min in a 30 μl of total volume. Following incubation, a 25 μl aliquot of each reaction was applied to a dot-blot apparatus equipped with three membranes: Tuffryn, Protran and Nytran (from top to bottom). After drying, the bound (on Protran) or free (on Nytran) RNAs were quantified by a Phosphorimager (GE Healthcare). Percent bound RNA, calculated as the ratio of radioactivity detected on the Protran membrane over the total input radioactivity, was plotted as a function of protein concentration. Kd was determined by global fitting to the equation: kobsd=(kₘₐₓ[…]) (Kd+[Dicer])−1, where kobsd is the observed rate constant at a given protein concentration, kₘₐₓ is the maximal rate constant with saturating protein, and Kd is the protein concentration that provides half the maximal rate. Curve fitting was conducted with KaleidaGraph (Synergy Software, Reading, Pa.). […]

[5] = target: T5, MBP-ATPase/helicase fragment of human Dicer (Homo sapiens, UniProt Q9UPY3 SEQ:1-604); test: filter; out of detectable limit; 5 mM EDTA; conditions: tags: His6-MBP N-terminal fusion (pHMGWA), E. coli; label: 5'-32P on one strand; siRNA duplex, 19 bp, Dicer product mimic
T5 chain: T1 sequence
Method: as §1

[6] = target: T6, hDcr-CΔRBD fragment of human Dicer (Homo sapiens, UniProt Q9UPY3 SEQ:1235-1844); test: filter; out of detectable limit; conditions: tags: expressed from pHMGWA-His6-MBP vector, E. coli; label: 5'-32P on one strand; siRNA duplex, 19 bp, Dicer product mimic
T6 chain: T3 sequence
Method: Filter binding assays of hDcr and different hDcr fragments were performed in the same way as previously described (7). Briefly, serial dilutions of hDcr protein were incubated in a buffer containing 20 mM Tris-HCl (pH 7.5), 25 mM NaCl, 5 mM EDTA, 1 mM dithiothreitol (DTT), 1% glycerol and ˜0.5-1 nM (1500 CPM) of 5′-end ³²P-labeled duplex RNA substrate (one strand was labeled) at room temperature for 60 min in a 30 μl of total volume. Following incubation, a 25 μl aliquot of each reaction was applied to a dot-blot apparatus equipped with three membranes: Tuffryn, Protran and Nytran (from top to bottom). After drying, the bound (on Protran) or free (on Nytran) RNAs were quantified by a Phosphorimager (GE Healthcare). Percent bound RNA, calculated as the ratio of radioactivity detected on the Protran membrane over the total input radioactivity, was plotted as a function of protein concentration. Kd was determined by global fitting to the equation: kobsd=(kₘₐₓ[…]) (Kd+[Dicer])−1, where kobsd is the observed rate constant at a given protein concentration, kₘₐₓ is the maximal rate constant with saturating protein, and Kd is the protein concentration that provides half the maximal rate. Curve fitting was conducted with KaleidaGraph (Synergy Software, Reading, Pa.).
To establish the relationship between cleavage activity and substrate binding, nitrocellulose filter-binding assays were performed with three kinds of RNAs under non-cleavage conditions: substrate dsRNA ([…]), Dicer product-mimic dsRNA (19-bp) and a pre-miRNA (pre-hlet-7a-1).

binding result [1]: binds
B1: human TAR-RNA binding protein (hTRBP2), recombinant (other, UniProt Q15633 1-366, looked up)
chain: MSEEEQGSGTTTGCGLPSIEQMLAANPGKTPISLLQEYGTRIGKTPVYDLLKAEGQAHQPNFTFRVTVGDTSCTGQGPSKKAAKHKAAEVALKHLKGGSMLEPALEDSSSFSPLDSSLPEDIPVFTAAAAATPVPSVVLTRSPPMELQPPVSPQQSECNPVGALQELVVQKGWRLPEYTVTQESGPAHRKEFTMTCRVERFIEIGSGTSKKLAKRNAAAKMLLRVHTVPLDARDGNEVEPDDDHFSIGVGSRLDGLRNRGPGCTWDSLRNSVGEKILSLRSCSLGSLGALGPACCRVLSELSEEQAFHVSYLDIEELSLSGLCQCLVELSTQPATVCHGSATTREAARGEAARRALQYLKIMAGSK
notes: Purified recombinant protein

binding result [2]: binds | binding result [3]: binds
B2: DP, tandem DUF283-PAZ domains of human Dicer (605-1068), bacterially expressed (other)
chain: MDDDDVFPPYVLRPDDGGPRVTINTAIGHINRYCARLPSDPFTHLAPKCRTRELPDGTFYSTLYLPINSPLRASIVGPPMSCVRLAERVVALICCEKLHKIGELDDHLMPVGKETVKYEEELDLHDEEETSVPGRPGSTKRRQCYPKAIPECLRDSYPRPDQPCYLYVIGMVLTTPLPDELNFRRRKLYPPEDTTRCFGILTAKPIPQIPHFPVYTRSGEVTISIELKKSGFMLSLQMLELITRLHQYIFSHILRLEKPALEFKPTDADSAYCVLPLNVVNDSSTLDIDFKFMEDIEKSEARIGIPSTKYTKETPFVFKLEDYQDAVIIPRYRNFDQPHRFYVADVYTDLTPLSKFPSPEYETFAEYYKTKYNLDLTNLNQPLLDVDHTSSRLNLLTPRHLNQKGKALPLSSAEKRKAKWESLQNKQILVPELCAIHPIPASLWRKAVCLPSILYRLHCLLTAE
notes: Expressed in E. coli from the pHMGWA-His6-MBP vector; also called middle domains of hDcr

B3: 21ab (dsRNA)
RNA 1: UAUACAAUGUGCUAGCUUUCU
RNA 2: AAAGCUAGCACAUUGUAUAGU
binding result [4]: no binding | binding result [5]: no binding | binding result [6]: no binding
